Test results published in a protein production outcome set (Wang et al. 2014).

Assay: label from the status in PepcDB records

| Sequence | protein production |
| --- | --- |
| MSIIFILKMSKQSEQILEEQLLIQLHKLGYEKVILPNEDALLLNLKKQLEKHNKITFSKAEFDKVLNIVNKGSVFEKAKILRQRQHIIRDNGDNLYFEFLNTDYWCQNEYQVTNQLSQEGRYLNRYDVTLLINGLPLVQIELKRRGLELKEAFNQIDRYRKHSFGSGHGLYHFVQLFVISNGVNTKYFGNFGIHKQEYLQTFHWTDENNKPLNNILNGFTDTFLEPCHISKMICKYIVLHETEKKLMVLRPYQYFAVENIIKKVKENEVLNGYDINKNGYIWHTTGSGKTLTSFKASQILSNIPAIKKVVFVVDRKDLDYQTNQEYEKFSQGCVSSVGNTDDLIKKFNDPAERIIVTTIQKLNNAISGKNIYKMKAMQDQRMVFIFDECHRSQFGDTHKNIVSYFTNIQLFGFTGTPILVENANGEKTTASLFGKCLHKYVITDAIRDENVLRFSVEYIQTFKQKEHIVDLKIEQINETEVFEAPERKEAIVNYILQHHKQKTQQGKYCAMMCVQDIDSVIQYYEILKAMKKAGEHQLKIITIFSFAQNEDPLDYEIKTELSVVEEPKALYGLPPHRRELLDAYIGDFNQLYDTAHSTKDSQSFYTYYNDVAKKAKNNEMDILLVANMFLTGFDSKYLNTLYVDKNLQYHGLIQAFSRTNRTHDKNKTQGNIVCFRNLKDKTDEAITLFSNREAIDEVIVAPYETYVEEFNKAVNQLKAIVPNVDSVDDLYTEEDQLKFILAFRNMIRLHKKMSHYTEFTWDDLEIEEQSFLDYSSKYQDLKDSIVHKSDKEKTSILDDIDFELELIKKDTINVSYIVQLLFKLKVKKGKKDKEEVEKEIFNLLNTEVSLRSKRELIEKFIKENMSKIVEAEDIVDEFTRFWNEEQQKAFDELVQDENLSAERTQHLIEGYLFSEQEPLRDEILKLRNEGRPSALQAKDISNRILQRIKDFVNTFINGMNIAA | failed |
| MAEKQKHDGRVKIGHYVLGDTLGVGTFGKVKIGEHQLTGHKVAVKILNRQKIRSLDVVGKIKREIQNLKLFRHPHIIKLYQVISTPTDFFMVMEYVSGGELFDYICKHGRVEEMEARRLFQQILSAVDYCHRHMVVHRDLKPENVLLDAHMNAKIADFGLSNMMSDGEFLRTSCGSPNYAAPEVISGRLYAGPEVDIWSCGVILYALLCGTLPFDDEHVPTLFKKIRGGVFYIPEYLNRSVATLLMHMLQVDPLKRATIKDIREHEWFKQDLPSYLFPEDPSYDANVIDDEAVKEVCEKFECTESEVMNSLYSGDPQDQLAVAYHLIIDNRRIMNQASEFYLASSPPSGSFMDDSAMHIPPGLKPHPERMPPLIADSPKARCPLDALNTTKPKSLAVKKAKWHLGIRSQSKPYDIMAEVYRAMKQLDFEWKVVNAYHLRVRRKNPVTGNYVKMSLQLYLVDNRSYLLDFKSIDDEVVEQRSGSSTPQRSCSAAGLHRPRSSFDSTTAESHSLSGSLTGSLTGSTLSSVSPRLGSHTMDFFEMCASLITTLAR | failed |
| MNKNILFLSLMALPVFAFAENNLVLPTITVSAEQQVQSYAADRLNKQAALGSLGEKSVLDTPFSLVSYSDVMIRDQQASTVSEVLRADPSIRETTNAGHLNENLQIRGFTVGFEDYNINGLYGMSPSGRIPTDILDHVTLLEGPNALVAGMAPAGSVGGVVMAQTKRATKDL | failed |
| MRFPELEELKNRRTLKWTRFPEDVLPLWVAESDFGTCPQLKEAMADAVEREVFGYPPDATGLNDALTGFYERRYGFGPNPESVFAIPDVVRGLKLAIEHFTKPGSAIIVPLPAYPPFIELPKVTGRQAIYIDAHEYDLKEIEKAFADGAGSLLFCNPHNPLGTVFSEEYIRELTDIAAKYDARIIVDEIHAPLVYEGTHVVAAGVSENAANTCITITATSKAWNTAGLKCAQIFFSNEADVKAWKNLSDITRDGVSILGLIAAETVYNEGEEFLDESIQILKDNRDFAAAELEKLGVKVYAPDSTYLMWLDFAGTKIEEAPSKILREEGKVMLNDGAAFGGFTTCARLNFACSRETLEEGLRRIASVL | failed |
| MAVNPATGKSDFVMMSEQQELGMGARYNQEILKQFPRYNDEKLQAYVQRVGERVARSSHRSNLQYHFTVIDSPDINAFALPGGYIYIHRGLIAYLGSEAELAAVLGHEVGHVTARHSVRQQSQASAWNILGQAVAIGTGVGAAGDLANVLGTAFVRGYGRDMELEADGLGAQYLARAGYDPTAMIQVVRVLKNQEDFAREEAARNGQAVQAGGYHGLFDTHPDNDRRLQEVVGPARQLANGQQEVGREVFLRHLEGMPFGDSASAGVRRGQNFYHAELDFTLSYPAGWKILNQPSALLGYPADEQSFIGMKLVPHDSRLTPAEFLRKNAGQRLAQEESLKQAGLNGYTAVVPGNPARRVAVIYQGDRAYLFVGVVKVGSLETQDDRFLSVIRSFRPLRDKERALAQPRRLHLVQVKAGQTLEQLAAGGEGSLSDSVARLRLLNDLYPSGEPRPGDWLKVVRLEHHHHHH | failed |
| MPHNLFSLFSQPLKPPLFEPGEPRFWDDPHISKSMLEAHLNQTHDGASRRNAEIEKTIRHLITSGFLKTGDQVLDLGCGPGLYSSKLCFEGMKVTGIDLSRRSIDYARAQAERDGQNIDYIYTDFFNIDYKETFDAVLQVYGEICTFSDEKRDLLLNLVHRALKDNGIFIFDVSTRELRMREGLKNRWYFSEGGFWRPGKHLVLEEGFDYPENDTWLNQYIIVDEDGTVKVYRLWLHDYSFETISQTLENNGFRVEKAWNNLSGELYQKGGDWIAIAAKKV | failed |
| MHYSYLEPGLHAELAAITPDEAVAHLRNHLGNLLLDPAVTAAYINRLGVLTPEETTPSTRAWLTYLLVRYCDLLPLDLAAQRILAQVTGNAAPHLRDLERCAIPDPIERKLERLGAGEDSERNRAMLLALLHEYPYSPAIMERLMTVELALDIPVGGEWLPSVRPPAGLLRPLHERLFIHAMMQGDTERALQHAAACVPDNPSPHLLNHLAELHARLGDTQQALNLYGASLEADPLQHPVRLRMEALAKPPRAHADALHHRIAICLYSFNKAELLERTLSSLAASQTGEAHILVLLNGCTDDSATRVAAVNERLFNGRLEVIDMPINIGAPAARNWLLAKQTVREADFVAFLDDDVDVPAAWLPRLVGNLEEHPGAGVAGTRVRNPGDVPRLQYLYRNISVARPGLIRLSLDTPTLHHDTGFYDFTRSTTSVMGCCHVFTRRALDEVPAFDLRFSPSQMDDIAHDIDLALAGFDVLYTGDVVCVHHQMSGLGRANATDWKRFGNVAGNDVKFYYRFADRLDALGRLNNLGFMPDMPPALEHHHHHH | not failed |
| MNPDSQHHATFNPGKGEGSPVGIAILGYGTVGSQVLRLLTENHNDFQHRAGGPLEIKGVAASSVEKHRGSLADQLGLLTDDARSLIARDDVDIVVEVIGGIDYPRELILEALHSGKSVVTANKALVAAHSEELAAAADEAGVDLYFEAAVAAAIPVLGPLRRSLAGDQIQSVAGIVNGTTNFILDAMDSTGASYDDMLAEATRLGYAEADPTADVEGHDAASKAAILASLAFHTRVTYADVYCEGISKITADDINAAKEAGFTIKLLAICERLNVDGVEKVSARVHPTLVPRNHPLASVDKSFNAIFVEAEAAGRLMFYGNGAGGNPTASAVLGDIVGAARNKVFGGRAPGESTYADLPIAPFGEVPTRFHIDMEVEDRVGVLADLAKTFSNHGISLRTVRQAEKDGHARLIVVTHTAKESELEATVEQIKNSDSVKKINSVIRLAGE | failed |
| MLHTEKVEYVNQAHEDITGIARDKSIGTNLRDLTFFRQHNALAEQTLAKIFRGDQAKGEVQFSRTDGSRYWLKYIVSQFITDRGNHYALVSGEENSDEHNYKAELEHHHHHH | not failed |
| MANLKVGDVLEDRYRIETPIARGGMSTVYRCLDLRLGRSMALKVMEEDFVDDPIFRQRFRREARSMAQLNHPNLVNVYDFSATDGLVYLVMELITGGTLRELLAERGPMPPHAAVGVMRGVLTGLAAAHRAGMVHRDIKPDNVLINSDHQVKLSDFGLVRAAHAGQSQDNQIVGTVAYLSPEQVEGGEIGPASDVYSAGIVLFELLTGTTPFSGEDDLDHAYARLTEVVPAPSSLIDGVPSLIDELVATATSINPEDRFDDSGEFLSALEDVATELSLPAFRVPVPVNSAANRANAQVPDAQPTDMFTTHIPKTPEPDHTAIIPVASANETSILPAQNMAQNMAQNPLQPPEPDFAPEPPPDTALNIQDQELARADEPEINTVSNRSKLKLTLWSIFVVAVIAAVAVGGWWFGSGRYGEIPQVLGMDEVQAVAVVEEAGFVAVAEPQYDNEVPTGSIIGTEPSFGERLPRGEDVSVLVSQGRPVVPDLSEDRSLSTVREELEQRTFVWVDGPGEYSDDVPEGQVVSFTPSSGTQLDVGETVQIHLSRGPAPVEIPDVSGMGVDQATRVLERAGLSVERTEEGFDAETPNGDVYGTSPKVSTEVKRGTSVVLQVSNAISVPDVVGMTKDEATAALAEEGLVVASTSIIPGEAASSADAVVTVEPESGSRVDPAHPQVSLGLAGEIQVPSVVGRKVSDARSILEEAGLTLTTDADDNDRIYSQTPRARSEVSVGGEVTVRAF | failed |
| MFCGRFANFIMRDVINFIKKYNNFVIIGHKDPDFDCIGSSLALSSFLSRIGKNSILLNEGPFIRKEIVPFKDKFLSEWPNIEISEYSVIILDCSILDRIGDEFIFYVKNMPTLVIDHHMSGEKLECEGYIDPFAPSTTFLIEKLIREFGHDLTKEEAWYILVGFCTDTGFFKFISRSDPEPFEMVARLVSKGISLKEVYSYIETTKSLKSIETLKLMLNSLESYWNGKVLFTFLSSSSSGKDGGVSGVNELFYMILSNVENNEILGILKEMEDGSIIVGLRSKDSFDVGKLAEDFGGGGHKNASGFRIKQGSLEIVKNRMLAYIKDNIYLLEHHHHHH | failed |
| FRAAAVRVRVPATSANLGPGFDALGLALGLYDDVVVRVADSGLHIDIAGEGSETLPRDEKHLLVRSLRTAFDLLGGQPRGLEIVCANRIPHGRGLGSSSAAICAGIVAARAVTIGGEARLDDAALLDLATEIEGHPDNVAACLLGGFTLSWMES | failed |
| MAHSGDNHSSEFCMLRSLSASIGADPLLVQGAGGNTSIKQAGVLWIKASGTWLKNARDDEIMVPVALAPLLDAVSHRSPAAEAAGQFTLADLNPRQLRPSIETTVHALLPQKIVVHVHCVETISIAVQANAEALLEGRLRGLDWAFVPYRRPGLPLAQAIAERLKPATNVLVLGNHGLVVAADTVAEAALLLQRVTGLLARQPRPAPPPDLDALLRLAAGSDYRLPASTAAHAVATDLASCRIAASGSLYPDHVIFLGVGSVIAGPGENAAAVVARTAAAPTSILFPGKGVLMRREANAGAEAMARCLADVVARVDGAARVNYLSPKENAELLNWDAEKYRQQLNREGATLQLEHHHHHH | failed |
| MTIVVSRKFLAILARAIEGEVATDTIFTLLGLKVVVTLASLLPASVFLSVLMVLGRMYRDNEMTVFACAGVGPLRIYRSILLFAGPVCVLGAFLSLQAMPWSERLSQELISKDEKGADVRGIKAGRFNEFSQGDVVLYAEQLNTDKTMSRVFAQSRRGDETGIVIAESGHMEINDAGDHFVVLNNGRRYQGVPGRADFVLNEFQAYGVRINPPEGSQAALKREAADSLHLWMSGRPRELAELQRRLAVPLGTFTLTLLAVPIARTSPRGGVWGNLISAFLIYIIYENLQKISQGLLATGKLSVWTSYAGIYAVMLLATSVLLARNSGWRWVRDTALGRR | failed |
| MSLLIRELETNDLDNFPEIDDSFIVNARLMLSLSKVNRRIEYTVEDVPSYEKSYLQNDNEELVYNEYINKPNQIIYIALLHNQIIGFIVLKKNWNNYAYIEDITVDKKYRTLGVGKRLIAQAKQWAKEGNMPGIMLETQNNNVAACKFYEKCGFVIGGFDFLVYKGLNMTSDEVAIYWYLHFDS | failed |
| MPETYIITPNLNGVSFLEVYFRSLLRQTYEDFRVVFIDNGSSDGSVDFIKSNFSEYLGDRIILIENHENLGFAASNNQGIRIALDDPQCRYVVCLNNDTEVLPDFIENLILAAGDDERVGSVQARMIWGQNRKLIDSAGLEYSLNGLGFNRGAYEPVENFNERARILGCCAGACLYRREALEDVEVDAEYFDEDFFAYYEDFDLALRLRSAGWDSLYAPDATVYHYKGGTNPFISDFTVYHNWRNYTWTFIKNMPADLLLMCLPLFVLTEIIQVLLNIKRGKLIILRAKYDAYRGLGRVIRKRRALKRVPESEIKEYLTMRWSVKVPSPQED | failed |
| MTSLPQISTLMREKSVENKLKVKAKDDHMVPSGLYEVRAIQLPGGSWRHYYVDHSSKETYWILPYSHPDGASSHPLEKLPVYLPSYEECVDETNPLAVPEVCSPARD | not failed |
